The source of these data is paper PMC7029138, “Modulation of Symbiotic Compatibility by Rhizobial Zinc Starvation Machinery”.

Data set [1] concerns the target T1, Zur (His6-Zur) (Sinorhizobium fredii CCBAU45436, UniProt C3MDK7 1-131).
T1 sequence: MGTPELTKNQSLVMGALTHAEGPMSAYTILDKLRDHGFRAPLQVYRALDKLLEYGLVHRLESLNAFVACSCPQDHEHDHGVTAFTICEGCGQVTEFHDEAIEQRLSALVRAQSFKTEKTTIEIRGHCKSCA
Briefly: EMSA; 200 uM ZnSO4; 2.64 uM Zur; 10 mM Tris pH 7.5, 50 mM KCl, 1 mM DTT, 1 ug poly(dI-dC), 200 uM ZnSO4, with or without 50 uM TPEN, ~50 fmol probe in 15 ul, 25 C 20 min; 5% native PAGE in TB at 4 C. The conditions noted are these: protein: recombinant; tags: N-terminal His6 (pET-28a(+), BamHI/HindIII); chain copies: 2; label: 5' biotin on both strands; blunt.

Data set [2] has as its target T1, Zur (His6-Zur). In words: EMSA; 200 uM ZnSO4; 0.33-2.64 uM Zur, oligomeric shift above 1.32 uM; 10 mM Tris pH 7.5, 50 mM KCl, 1 mM DTT, 1 ug poly(dI-dC), 200 uM ZnSO4, with or without 50 uM TPEN, ~50 fmol probe in 15 ul, 25 C 20 min; 5% native PAGE in TB at 4 C. The conditions noted are these: protein: recombinant; tags: N-terminal His6 (pET-28a(+), BamHI/HindIII); chain copies: 2; label: 5' biotin on both strands; blunt.

B1: c06450 Zur box probe (dsDNA)
DNA 1: CAGCTCCTTATAATGTTATAACGTAACGGCACTTGATA
DNA 2: TATCAAGTGCCGTTACGTTATAACATTATAAGGAGCTG
Consider B1, for which the binding result in the data set with Zur (His6-Zur) [1] is on record as “binds”.

B2: znuA promoter Zur box probe (dsDNA)
DNA 1: GCGACTGCGTCGTGTAATGTTATTACATCAATTGCGTTATGCTATAACGTGTGCAATAGC
DNA 2: GCTATTGCACACGTTATAGCATAACGCAATTGATGTAATAACATTACACGACGCAGTCGC
Turning to B2, the binding result in the data set with Zur (His6-Zur) [2] was “binds”.

B3: e68370 Zur box probe (dsDNA)
DNA 1: CAATCCCACGACGTAATGTTATAACATATCAGATAAGA
DNA 2: TCTTATCTGATATGTTATAACATTACGTCGTGGGATTG
For B3, the binding result with Zur (His6-Zur) [1] is on record as “binds”.

B4: a42610 Zur box probe (dsDNA)
DNA 1: CAACATTCGCATGTTATGTTATAACATATCGCGTAATC
DNA 2: GATTACGCGATATGTTATAACATAACATGCGAATGTTG
With B4, the binding result with Zur (His6-Zur) [1] is listed as “binds”.

B5: d65890 Zur box probe (dsDNA)
DNA 1: TGATCGACGTGTGTAATGATATAACATATCGCATAAGT
DNA 2: ACTTATGCGATATGTTATATCATTACACACGTCGATCA
For B5, the binding result with Zur (His6-Zur) [1] was “binds”.
